Assay results as given in patent US20120277161A1, “INHIBITION OF MULTIPLE CELL ACTIVATION PATHWAYS” (INTER-K PTY LIMITED, priority 2009, published 2012).

Tests used:
[1] = test system: cell adhesion mediated ERK activation in HT29 human colon cancer cells; assay: ERK cell adhesion assay (fibronectin), phospho-ERK1/2 ELISA; type: cell-based
Experimental: Experimental wells were coated with 100 μL of fibronectin (1-10 μg/mL, Sigma-Aldrich) or 100 μL of 1% BSA (negative control, Sigma-Aldrich). Plates were then incubated at 37° C. for 1 hour before being washed with 100 μL PBS. 100 μL of 1% BSA was then added to each well for 30 minutes to block non-specific binding (37°). HT29 human colon cancer cells were harvested using 0.5% trypsin-EDTA and 50,000 cells were plated into each empty well in 100 μL of serum free media (SFM; DMEM supplemented with 1% (v/v) L-glutamine and 2% (v/v) 1M HEPES solution). 100 μL of SFM with or without PP2 (final concentration 5 μM, specific c-Src inhibitor, Sigma-Aldrich), was then added to each well. Plates were centrifuged at 200 rpm for 5 minutes and then incubated at 37° C. for one hour. Phospho-ERK1/2 levels in the cell groups was evaluated by ELISA (Active Motif assay kit, Australian Biosearch) essentially as described in Example 7.1.
A study was undertaken to evaluate the effect of the PI3K inhibitor Wortmannin (0.25 μM final concentration) on cell adhesion mediated ERK activation in HT29 human colon cancer cells. Phospho-ERK1/2 levels were measured as an indicator of ERK activation substantially as described in Example 7.1. Increasing levels of phospho-ERK1/2 in HT29 cells correlated with increasing levels of fibronectin in the absence of serum stimulation of the HT29 cells.

[2] = test system: ADDP human ovarian carcinoma cell line; assay: Cell proliferation (MTT) assay, ADDP cells; type: cell-based
Experimental: (§1) 6.1 Cell Proliferation (MTT) Assay Single cell suspensions of viable trypsinised cells were seeded into 96-well tissue culture plates at a density of 2×10^3 cells per well in a volume of 100 μl of a suitable culture media supplemented with heat inactivated foetal calf serum (FCS) (e.g., Dulbecco's Modified Eagles Medium (DMEM), with 10% v/v FCS, 1% L-glutamine, 2% (v/v) Hepes, and antibiotics). A set of triplicate wells was prepared for each concentration of the peptide dendrimer being tested. Additional sample wells containing untreated cells or media alone were set up in each treatment plate and processed in parallel as reference controls. A zero-time plate of untreated cells and media-alone wells was simultaneously prepared and an MTT assay carried out on this plate at the time of addition of the kinase inhibitor (i.e., polypeptide or dendrimer) to treatment plates. All plates were cultured for 24 hours before addition of the test dendrimer.
To prepare the MTT solution 100 mg of MTT (3-(4,5-dimethylthiazolyl-2)-2,5-diphenyltetrazolium bromide) (Cat #. M-128, Sigma, St Louis Mo.), is mixed with 20 ml of PBS at pH 7.4. The resulting solution is filter sterilized (0.2 μM syringe filter) and stored at 4° C. protected from light until use. MTT substrate is cleaved in growing cells to yield a water insoluble salt. After solubilisation of the salt crystals, a coloured product is produced the measurement of which allows quantitation of the proliferative activity of the cultured cells.
Appropriate concentrations of the kinase inhibitor were prepared by dilution of freshly prepared sterile 1 mM stock solutions into cell culture media to give a final well volume of 200 μl containing 10% v/v FCS. The zero-plate was processed by addition of MTT at this time. Cell culture was continued for a further 24 or 48 hours before addition of 20 μl of MTT in PBS (5 mg/ml, 0.2 um filter sterilised). The MTT cell proliferation assay measures cell proliferation rate and, in instances where cell viability is compromised, the assay indicates a comparative reduction in cell viability. After a 3 hour incubation in the presence of MTT (5% CO2 in air at 37° C.), plates were centrifuged at 450 g for 5 minutes, supernatant was removed by gentle suction and precipitated tetrazolium salt resuspended into 150 μl DMSO:glycine (0.1M glycine, 0.1M NaCl pH 10.5) (6:1 v/v) solution. Plates were gently vortexed to complete solubilisation of crystalline material and absorbance was read at 550 nm using a microplate reader. Sample data were processed to determine the comparative growth of treated samples relative to untreated controls.

[3] = test system: A2780 ovarian cancer cell line; assay: Cell proliferation (MTT) assay, A2780 cells; type: cell-based, human; details: drug alone; FIG. 6
Experimental: as §1, with “A zero-time plate of untreated cells and media-alone wells was simultaneously prepared and an MTT assay carried out on this plate at the time of addition of the kinase inhibitor (i.e., polypeptide or dendrimer) to treatment plates. All plates were cultured for 24 hours before addition of the test dendrimer.” left out
To prepare the MTT solution 100 mg of MTT (3-(4,5-dimethylthiazolyl-2)-2,5-diphenyltetrazolium bromide) (Cat #. M-128, Sigma, St Louis Mo.), is mixed with 20 ml of PBS at pH 7.4. […] After solubilisation of the salt crystals, a coloured product is produced the measurement of which allows quantitation of the proliferative activity of the cultured cells.
Appropriate concentrations of the kinase inhibitor were prepared by dilution of freshly prepared sterile 1 mM stock solutions into cell culture media to give a final well volume of 200 μl containing 10% v/v FCS. […] Plates were gently vortexed to complete solubilisation of crystalline material and absorbance was read at 550 nm using a microplate reader. […]

[4] = biological target: c-SRC (h) (Homo sapiens, UniProt P12931); assay: c-Src kinase activity assay (cell-free, 33P-ATP); type: biochemical; details: peptide 50 μM, relative to control
Experimental: In a final reaction volume of 25 μL, c-SRC (h) (5-10 mU) is incubated with 8 mM MOPS pH 7.0, 0.2 mM EDTA, 250 μM KVEKIGEGTYGVVYK (SEQ ID No. 19) (Cdc2 peptide), 10 mM MgAcetate and [γ-33P-ATP] (specific activity approx. 500 cpm/pmol, concentration as required). The reaction is initiated by the addition of the MgATP mix. After incubation for 40 minutes at room temperature, the reaction is stopped by the addition of 5 μL of a 3% phosphoric acid solution. 10 μL of the reaction is then spotted onto a P30 filtermat and washed three times for 5 minutes in 75 mM phosphoric acid and once in methanol prior to drying and scintillation counting.

[5] = biological target: human Lyn (Homo sapiens, UniProt P07948); assay: Lyn kinase activity assay; type: biochemical; details: peptide 50 μM
Sequence of human Lyn (P07948 whole entry): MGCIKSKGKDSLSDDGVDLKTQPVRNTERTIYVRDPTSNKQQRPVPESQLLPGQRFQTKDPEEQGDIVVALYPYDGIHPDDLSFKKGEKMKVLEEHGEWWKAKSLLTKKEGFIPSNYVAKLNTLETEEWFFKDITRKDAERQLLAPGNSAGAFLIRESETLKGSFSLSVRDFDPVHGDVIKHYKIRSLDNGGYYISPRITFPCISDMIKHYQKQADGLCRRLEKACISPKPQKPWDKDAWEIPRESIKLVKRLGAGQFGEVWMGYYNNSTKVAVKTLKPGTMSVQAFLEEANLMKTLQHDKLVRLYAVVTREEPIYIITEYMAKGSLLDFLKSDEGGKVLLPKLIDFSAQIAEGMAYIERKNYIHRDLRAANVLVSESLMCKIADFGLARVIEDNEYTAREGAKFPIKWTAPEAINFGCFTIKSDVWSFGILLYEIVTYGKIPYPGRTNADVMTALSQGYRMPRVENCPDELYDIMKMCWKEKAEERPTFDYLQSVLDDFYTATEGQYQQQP
Experimental: In a final reaction volume of 25 μl, human Lyn is incubated with the RSKAKNPLYR peptide (SEQ ID No: 6) in 50 mM Tris buffer pH 7.5, 0.1 mM EGTA, 0.1 mM Na3VO4, 1% mercaptoethanol, 0.1 mg/ml poly(Glu,Tyr) 4:1, 10 mM Mg acetate and [γ-33P-ATP] (specific activity approx. 500 cpm/pmol). The reaction was initiated by the addition of the MgATP mix, incubated for 40 minutes at room temperature prior to being stopped and kinase activity assessed by scintillation counting as per the protocol described for c-Src described in Example 1.1.

[6] = biological target: human Yes (Homo sapiens, UniProt P07947); assay: Yes kinase activity assay; type: biochemical; details: peptide 50 μM
Sequence of human Yes (P07947 whole entry): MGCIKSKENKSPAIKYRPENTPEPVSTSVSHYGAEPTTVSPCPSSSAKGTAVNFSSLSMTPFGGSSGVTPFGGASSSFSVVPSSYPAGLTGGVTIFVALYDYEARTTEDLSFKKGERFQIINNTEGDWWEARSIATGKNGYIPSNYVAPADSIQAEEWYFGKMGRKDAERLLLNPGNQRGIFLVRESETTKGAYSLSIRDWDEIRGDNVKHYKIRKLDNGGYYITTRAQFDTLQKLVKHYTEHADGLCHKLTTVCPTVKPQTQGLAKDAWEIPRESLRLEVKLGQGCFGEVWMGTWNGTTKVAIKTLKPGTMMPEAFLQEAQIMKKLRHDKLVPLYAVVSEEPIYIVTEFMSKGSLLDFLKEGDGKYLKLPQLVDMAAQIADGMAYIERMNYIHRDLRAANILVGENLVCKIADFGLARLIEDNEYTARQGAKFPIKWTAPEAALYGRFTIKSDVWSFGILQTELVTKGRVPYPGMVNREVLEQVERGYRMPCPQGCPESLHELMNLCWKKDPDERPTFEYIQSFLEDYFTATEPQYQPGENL
Experimental: In a final reaction volume of 25 μl, human Yes is incubated with the RSKAKNPLYR peptide (SEQ ID No: 6) in 8 mM MOPS buffer pH 7.0, 0.2 mM EDTA, 0.1 mg/ml poly(Glu,Tyr) 4:1, 10 mM Mg acetate and [γ-33P-ATP] (specific activity approx. 500 cpm/pmol). The reaction is initiated by the addition of the MgATP mix, incubated for 40 minutes at room temperature prior to being stopped and kinase activity assessed by scintillation counting again as per the protocol described for c-Src in Example 1.1.

[7] = biological target: MEK1 (h) (Homo sapiens, UniProt Q02750); assay: MEK1 kinase activity assay; type: biochemical; details: 50 μM
Experimental: The reaction is initiated by the addition of the MgATP. After incubation for 40 minutes at room temperature, 5 μL of this incubation mix is used to initiate an ERK2 (m) assay.

## CC(C)(C)n1nc(-c2ccc(Cl)cc2)c2c(N)ncnc21 [PP2]
[1]; 5 μM, no serum stimulation, results not shown
  phospho-ERK levels, HT29 cells on fibronectin: markedly reduced

## COC[C@H]1OC(=O)c2coc3c2[C@@]1(C)C1=C(C3=O)[C@@H]2CCC(=O)[C@@]2(C)C[C@H]1OC(C)=O [Wortmannin]
[1]; 0.25 μM, HT29 cells
  reduction of cell adhesion mediated ERK activation: about 55%

## N.N.[Cl][Pt][Cl] [cisplatin, cis-diamminedichloroplatinum (II), reference compound]
[2]; drug alone, FIG. 6
  inhibition of growth of ADDP cell line: substantially less inhibition of growth
[3]
  inhibition of growth of A2780 cell line: highly susceptible

## NPLYR [Peptide 8]
[4]
  % Inhibition of control, c-Src tyrosine kinase activity: negligible or no c-Src inhibitory activity

## RSKAK [Peptide 6]
[4]
  % Inhibition of control, c-Src tyrosine kinase activity: negligible or no c-Src inhibitory activity

## RSKAKNPLYR [Peptide 1]
[4]
  % Inhibition of control, c-Src tyrosine kinase activity: approx. 57%
[5]
  inhibition of Lyn activity: only relatively low level inhibition
[6]
  inhibition of Yes activity: only relatively low level inhibition
[7]
  inhibition of MEK1: negligible inhibition
[2]; 20 μM peptide, 72 hour culture, data not shown
  effect in combination with cisplatin, ADDP cells: synergistic effect

## WQTGT [Peptide 7]
[4]
  % Inhibition of control, c-Src tyrosine kinase activity: No inhibitory activity
